4 molecules from publication PMC11441495 (Proceedings of the National Academy of Sciences of the …, 2024) can be followed below.

The labels stand for the following.
B1: human β-catenin (natural protein, UniProt P35222 1-781, looked up)
chain: MATQADLMELDMAMEPDRKAAVSHWQQQSYLDSGIHSGATTTAPSLSGKGNPEEEDVDTSQVLYEWEQGFSQSFTQEQVADIDGQYAMTRAQRVRAAMFPETLDEGMQIPSTQFDAAHPTNVQRLAEPSQMLKHAVVNLINYQDDAELATRAIPELTKLLNDEDQVVVNKAAVMVHQLSKKEASRHAIMRSPQMVSAIVRTMQNTNDVETARCTAGTLHNLSHHREGLLAIFKSGGIPALVKMLGSPVDSVLFYAITTLHNLLLHQEGAKMAVRLAGGLQKMVALLNKTNVKFLAITTDCLQILAYGNQESKLIILASGGPQALVNIMRTYTYEKLLWTTSRVLKVLSVCSSNKPAIVEAGGMQALGLHLTDPSQRLVQNCLWTLRNLSDAATKQEGMEGLLGTLVQLLGSDDINVVTCAAGILSNLTCNNYKNKMMVCQVGGIEALVRTVLRAGDREDITEPAICALRHLTSRHQEAEMAQNAVRLHYGLPVVVKLLHPPSHWPLIKATVGLIRNLALCPANHAPLREQGAIPRLVQLLVRAHQDTQRRTSMGGTQQQFVEGVRMEEIVEGCTGALHILARDVHNRIVIRGLNTIPLFVQLLYSPIENIQRVAAGVLCELAQDKEAAEAIEAEGATAPLTELLHSRNEGVATYAAAVLFRMSEDKPQDYKKRLSVELTSSLFRTEPMAWNETADLGLDIGAQGEPLGYRQDDPSYRSFHSGGYGQDALGMDPMMEHEMGGHHPGADYPVDGLPDLGHAQDLMDGLPPGDSNQLAWFDTDL
B2: full-length human αE-catenin (natural protein, UniProt P35221 1-906, looked up)
chain: MTAVHAGNINFKWDPKSLEIRTLAVERLLEPLVTQVTTLVNTNSKGPSNKKRGRSKKAHVLAASVEQATENFLEKGDKIAKESQFLKEELVAAVEDVRKQGDLMKAAAGEFADDPCSSVKRGNMVRAARALLSAVTRLLILADMADVYKLLVQLKVVEDGILKLRNAGNEQDLGIQYKALKPEVDKLNIMAAKRQQELKDVGHRDQMAAARGILQKNVPILYTASQACLQHPDVAAYKANRDLIYKQLQQAVTGISNAAQATASDDASQHQGGGGGELAYALNNFDKQIIVDPLSFSEERFRPSLEERLESIISGAALMADSSCTRDDRRERIVAECNAVRQALQDLLSEYMGNAGRKERSDALNSAIDKMTKKTRDLRRQLRKAVMDHVSDSFLETNVPLLVLIEAAKNGNEKEVKEYAQVFREHANKLIEVANLACSISNNEEGVKLVRMSASQLEALCPQVINAALALAAKPQSKLAQENMDLFKEQWEKQVRVLTDAVDDITSIDDFLAVSENHILEDVNKCVIALQEKDVDGLDRTAGAIRGRAARVIHVVTSEMDNYEPGVYTEKVLEATKLLSNTVMPRFTEQVEAAVEALSSDPAQPMDENEFIDASRLVYDGIRDIRKAVLMIRTPEELDDSDFETEDFDVRSRTSVQTEDDQLIAGQSARAIMAQLPQEQKAKIAEQVASFQEEKSKLDAEVSKWDDSGNDIIVLAKQMCMIMMEMTDFTRGKGPLKNTSDVISAAKKIAEAGSRMDKLGRTIADHCPDSACKQDLLAYLQRIALYCHQLNICSKVKAEVQNLGGELVVSGVDSAMSLIQAAKNLMNAVVQTVKASYVASTKYQKSQGMASLNLPAVSWKMKAPEKKPLVKREKQDETQTKIKRASQKKHVNPVQALSEFKAMDSI
B3: full-length human vinculin autoinhibition-disruption mutant VK3E (natural protein, UniProt P18206-2 1-1066, looked up)
chain: MPVFHTRTIESILEPVAQQISHLVIMHEEGEVDGKAIPDLTAPVAAVQAAVSNLVRVGKETVQTTEDQILKRDMPPAFIKVENACTKLVQAAQMLQSDPYSVPARDYLIDGSRGILSGTSDLLLTFDEAEVRKIIRVCKGILEYLTVAEVVETMEDLVTYTKNLGPGMTKMAKMIDERQQELTHQEHRVMLVNSMNTVKELLPVLISAMKIFVTTKNSKNQGIEEALKNRNFTVEKMSAEINEIIRVLQLTSWDEDAWASKDTEAMKRALASIDSKLNQAKGWLRDPSASPGDAGEQAIRQILDEAGKVGELCAGKERREILGTCKMLGQMTDQVADLRARGQGSSPVAMQKAQQVSQGLDVLTAKVENAARKLEAMTNSKQSIAKKIDAAQNWLADPNGGPEGEEQIRGALAEARKIAELCDDPKERDDILRSLGEISALTSKLADLRRQGKGDSPEARALAKQVATALQNLQTKTNRAVANSRPAKAAVHLEGKIEQAQRWIDNPTVDDRGVGQAAIRGLVAEGHRLANVMMGPYRQDLLAKCDRVDQLTAQLADLAARGEGESPQARALASQLQDSLKDLKARMQEAMTQEVSDVFSDTTTPIKLLAVAATAPPDAPNREEVFDERAANFENHSGKLGATAEKAAAVGTANKSTVEGIQASVKTARELTPQVVSAARILLRNPGNQAAYEHFETMKNQWIDNVEKMTGLVDEAIDTKSLLDASEEAIKKDLDKCKVAMANIQPQMLVAGATSIARRANRILLVAKREVENSEDPKFREAVKAASDELSKTISPMVMDAKAVAGNISDPGLQKSFLDSGYRILGAVAKVREAFQPQEPDFPPPPPDLEQLRLTDELAPPKPPLPEGEVPPPRPPPPEEKDEEFPEQKAGEVINQPMMMAARQLHDEARKWSSKGNDIIAAAKRMALLMAEMSRLVRGGSGTEEALIQCAKDIAKASDEVTRLAKEVAKQCTDKRIRTNLLQVCERIPTISTQLEILSTVKATMLGRTNISDEESEQATEMLVHNAQNLMQSVKETVREAEAASIKIRTDAGFTLRWVRKTPWYQ

Assay in all cases: reconstitution of the complex from purified proteins
In assay [1] the target is B2.
The target of assay [2] is B3.
Assay [3] concerns the target α-catenin–β-catenin–E-cadherin cytoplasmic tail complex (ABE complex) (human, UniProt P35221 1-906; P35222 1-781; P12830 731-882).
In the assay “human β-catenin” the target is B1.

Sequence of α-catenin–β-catenin–E-cadherin cytoplasmic tail complex (ABE complex) (P12830 731-882, one chain of several): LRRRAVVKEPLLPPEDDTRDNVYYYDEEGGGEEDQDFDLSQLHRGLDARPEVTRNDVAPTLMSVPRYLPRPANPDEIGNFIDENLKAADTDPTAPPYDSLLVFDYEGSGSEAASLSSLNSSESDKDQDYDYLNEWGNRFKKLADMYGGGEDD

Take B1: the binding result in assay [1] is listed as “binds”. As to B2, the binding result in assay [2] is “binds”. Take B3: the binding result in assay [3] is “binds”.

B4: cytoplasmic domain of human E-cadherin (EcadCT, residues 731 to 882) (domain or fragment)
chain: not shown
Consider B4, for which, in the assay with human β-catenin, the binding result is “binds”.
